These results are taken from paper PMC11297322, “MEILB2-BRME1 forms a V-shaped DNA clamp upon BRCA2-binding in meiotic recombination” (Nature Communications, 2023).

To fix the notation:
B1: BRME1MBD ΔRKTK (mouse BRME1 amino-acids 540–574) (domain or fragment, UniProt Q6DIA7 540-574, looked up)
chain: RMQDATDTVRGLVVELSGLNRLIMSTHRDLEAFKR
notes: BRME1 (BRCA2 and MEILB2-associating protein 1); The crystallography methods give 540–574 for the crystallised BRME1 chain, the results give 540–578; also called BRME1 540–574; BRME1MBD (in the crystallography methods); source: E. coli BL21 (DE3), purified with MEILB2 (Ni-NTA, amylose, ion exchange, TEV cleavage, SEC); not shown: His6, N-terminal, cleaved
B2: BRME1MBD (mouse BRME1 amino-acids 540–578) (domain or fragment, UniProt Q6DIA7 540-578, looked up)
chain: RMQDATDTVRGLVVELSGLNRLIMSTHRDLEAFKRRKTK
notes: source: E. coli BL21 (DE3), purified in complex with MEILB2 (Ni-NTA, amylose, ion exchange, TEV cleavage, SEC); not shown: His6, N-terminal, cleaved
B3: MBP-MEILB2 (mouse MEILB2 22–338 with N-terminal MBP-tag) (domain or fragment, UniProt Q9D4G2 22-338, looked up)
chain: EEFVKVRKKDLERLTTEVMQIRDFLPRILNGELLESFQKLKMVEKNLERKEQELEQLIMDREHFKARLETAQADSGREKKEKLALRQQLNEAKQQLLQQAEYCTQMGAVTCTLLWGVSSSEEVVKTILGGDKALKFFNITGQTMESFVKSLDGDVKEVDSDENQFVFALAGIVTNVAAIACGREFLVNSSRVLLDTMLQLLGDLKPGQCTKLKVLMLMSLYNVSINSKGLKYITESPGFIPLLWWLLSDPDAEVCLHTLRLIQSVVLEPDVFSKVASELQSSLPLQRILAMSKSRNSHLQSAAQELLEDLRALDCNV
notes: MEILB2 (HSF2BP), mouse, residues 22-338; also called MEILB2 with N-terminal MBP-tag; source: E. coli BL21 (DE3), purified in complex; not shown: MBP, N-terminal, kept
B4: MEILB2 (mouse MEILB2 amino-acids 22–338, the full structured region) (domain or fragment, UniProt Q9D4G2 22-338, looked up)
chain: B3 chain
notes: MEILB2 (HSF2BP), mouse, residues 22-338: α-helical region (α1, α2) and C-terminal ARM domain; the N-terminal 21 residues removed; also called HSF2BP; source: E. coli BL21 (DE3), purified in complex (Ni-NTA, amylose, ion exchange, TEV cleavage, SEC); not shown: His6-MBP (pMAT11) or MBP (pRSF-Duet1), N-terminal, cleaved
B5: MEILB2 K26E (mouse MEILB2 22–338) (domain or fragment, UniProt Q9D4G2 22-338, looked up)
chain: B3 chain with K5E
notes: MEILB2 (HSF2BP), mouse, residues 22-338 with K26E; source: E. coli BL21 (DE3), purified in complex (Ni-NTA, amylose, ion exchange, TEV cleavage, SEC); not shown: His6-MBP (pMAT11) or MBP (pRSF-Duet1), N-terminal, cleaved
B6: MEILB2α (mouse MEILB2 amino-acids 22–81) (domain or fragment, UniProt Q9D4G2 22-81, looked up)
chain: EEFVKVRKKDLERLTTEVMQIRDFLPRILNGELLESFQKLKMVEKNLERKEQELEQLIMD
notes: MEILB2 (meiotic localiser of BRCA2; HSF2BP), mouse, residues 22-81: the α1 helix and the beginning of the α2 helix; Two copies stand in the 2:2 core complex with BRME1; also called HSF2BP; source: E. coli BL21 (DE3), purified with BRME1 (Ni-NTA, amylose, ion exchange, TEV cleavage, SEC); not shown: His6-MBP (pMAT11) or MBP (pRSF-Duet1), N-terminal, cleaved
B7: BRCA2MBD (mouse BRCA2 amino-acids 2232–2283, MEILB2-binding domain) (domain or fragment, UniProt P97929 2232-2283, looked up)
chain: PIKRSLLNEFDRIIESKGKSLTPSKSTPDGTVKDRSLFTHHMSLEPVTCGPF
notes: source: E. coli BL21 (DE3), purified in complex with MEILB2 (Ni-NTA, amylose, ion exchange, TEV cleavage, SEC); not shown: His6-MBP (pMAT11) or MBP (pRSF-Duet1), N-terminal, cleaved
B8: MBP-BRCA2MBD (mouse BRCA2 2232–2283 with N-terminal MBP-tag) (domain or fragment, UniProt P97929 2232-2283, looked up)
chain: B7 chain
notes: also called BRCA2MBD with N-terminal MBP-tag; source: E. coli BL21 (DE3), purified in complex; not shown: MBP, N-terminal, kept

Data set [1] concerns the target B6. In words: crystal structure; MEILB2α–BRME1MBD (22–81; 540–574) 2:2 core complex; crystals grown on ice in 20 mM HEPES pH 7.5, 150 mM KCl; 1.50 Å; one 2:2 complex in the asymmetric unit. To be noted: both partners purified.
Data set [2] addresses B4. In words: SEC-MALS; MEILB2–BRME1MBD complex at >5 mg/ml, Superdex 200 Increase 10/300 GL, 20 mM HEPES pH 7.5, 150 mM KCl, 2 mM DTT. To be noted: both partners purified.
The target of data set [3] is B5. In words: not stated; BRCA2MBD–MEILB2–BRME1MBD complex with MEILB2 K26E; data in Supplementary Figs. 2 and 12c. To be noted: both partners purified.
The target of data set [4] is B3. In words: SEC-MALS; BRCA2MBD–MEILB2–BRME1MBD ternary complex at >5 mg/ml, Superdex 200 Increase 10/300 GL, 20 mM HEPES pH 7.5, 500 mM KCl, 2 mM DTT. To be noted: both partners purified.
The target in data set [5] is B4. Described as above. To be noted: both partners purified.
Data set [6] concerns the molecule itself. Described as above.
Data set [7] concerns the molecule itself. In words: not stated; BRCA2MBD–MEILB2 in the absence of BRME1MBD, in solution; data in Supplementary Fig. 14.
Data set [8] concerns the molecule itself. Put plainly: SEC-MALS; MEILB2–BRME1MBD complex at >5 mg/ml, Superdex 200 Increase 10/300 GL, 20 mM HEPES pH 7.5, 150 mM KCl, 2 mM DTT.
Data set [9] deals with the molecule itself. In words: not stated; BRCA2MBD–MEILB2–BRME1MBD complex with MEILB2 K26E; data in Supplementary Figs. 2 and 12c.
Data set [10] deals with the molecule itself. Put plainly: crystal structure; MEILB2α–BRME1MBD (22–81; 540–574) 2:2 core complex; crystals grown on ice in 20 mM HEPES pH 7.5, 150 mM KCl; 1.50 Å; one 2:2 complex in the asymmetric unit.
The target in data set [11] is B4. In words: not stated; BRCA2MBD–MEILB2 in the absence of BRME1MBD, in solution; data in Supplementary Fig. 14. Particulars: both partners purified.

Changes are numbered by the printed parent chain. Numbers in names are those of the source.

With B1, the binding result in [1] is reported as “binds”.
In the case of B2, the “stoichiometry N” value in data set [2] is 1 BRME1MBD per MEILB2 (2:2); in [3], 1 BRME1MBD per MEILB2 (4:4 in the 2:4:4 complex); in [4], 1 BRME1MBD per MEILB2 (4:4 in the 2:4:4 complex); in data set [5] it was 1 BRME1MBD per MEILB2 (4:4 in the 2:4:4 complex).
As to B3, the “stoichiometry N” value in data set [6] was 4 MEILB2 chains in the 2:4:4 complex (with BRCA2MBD).
Turning to B4, the “stoichiometry N” value was 8 MEILB2 chains in the 4:8 oligomer (with BRCA2MBD) in [7], 2 MEILB2 chains in the 2:2 complex in data set [8] and 4 MEILB2 chains in the 2:4:4 complex (with BRCA2MBD) in [6].
With B5, in data set [9], the “stoichiometry N” value is 4 MEILB2 chains in the 2:4:4 complex (with BRCA2MBD).
Turning to B6, in data set [10], the binding result is reported as “binds”.
As for B7, the “stoichiometry N” value in data set [11] is 0.5 BRCA2MBD per MEILB2 (4:8); in [3] it was 0.5 BRCA2MBD per MEILB2 (2:4 in the 2:4:4 complex); in data set [5], 0.5 BRCA2MBD per MEILB2 (2:4 in the 2:4:4 complex).
Turning to B8, in data set [4], the “stoichiometry N” value is 0.5 BRCA2MBD per MEILB2 (2:4 in the 2:4:4 complex).
